Legend:
[1] = Constant-force optical tweezers folding assay of the wild-type aptamer in 2,6-diaminopurine (DAP); format: physicochemical; conditions: 3 mM Mg^2+; for Folding rate kf / Transition distance ΔX / Unfolding rate ku / ΔG (0): 250 uM DAP; for ΔG (0): zero force
Text: Guanine binds to the aptamer via nucleobases U^22, U^47, U^51 and C^74 in the junction J1/2, J2/3 and J3/1. The hydrogen bonding between C^74 with the functional group in the 6th position of the purine is deterministic for ligand recognition. The purine analog 2,6-diaminopurine (DAP) differs from guanine in having an amino group in the 6th position (FIG. 13), and thus disrupts the hydrogen bonding pattern. […] In order to investigate if the loop-loop dynamics in the guanine-riboswitch are affected with a change in the ligand, mechanical assays in the presence of DAP were performed. […] Furthermore, a near similar L2-L3 kinetics highlighted that the tertiary and the secondary interactions remained unaffected by replacing guanine with DAP (Table 1).
In a constant-force (CF) experiment, the RNA is held at a preset force through feedback control. The preset force typically fluctuated around the mean with a standard deviation ±0.15 pN. In this mode, data is recorded from 4-40 kHz to capture the fast intermediates. The plots are shown as extension vs. time (as in FIG. 6A). In force-jump (FJ) assay, the force is suddenly jumped from one force to another, and then held constant thereafter, as shown in FIGS. 23A-B.
All FR, CF and FJ experiments were carried out at an ambient temperature, 25±0.5° C. The buffer in the microfluidics contained 10 mM Tris-HCl, pH 7.5 at 25° C., 250 mM NaCl, 3 mM MgCl2, and purine concentrations as indicated in wild-type aptamer. Unless stated otherwise, Mg^2+ concentration in the buffer was maintained at 3 mM in all experiments. The buffer in mutant m1 contained 5 mm Mg^2+ and 1 μM G, and in m3 contained 5 mM Mg^2+ and 200 nM Guanine. For the remaining m2, m4, m5 and m6 mutants, the buffer in single-molecule experiments was supplemented only with 3 mM Mg^2+ and 200 nM Guanine.

[2] = Force-ramp mechanical unfolding-refolding of the guanine-aptamer (optical tweezers); format: physicochemical; conditions: for Unfolding force of the aptamer / Observed nucleotides / Observed ΔXobs: +1 μM guanine, force-ramp; for Observed nucleotides / Observed ΔXobs: complete aptamer (69 nt), 18 pN
Protocol: A 69 nucleotide (nt) guanine-sensing aptamer (FIGS. 3 and 4A-B) from xpt-pbuX operon in B. subtilis was used for mechanical unfolding-refolding studies. In the experimental set up shown in FIGS. 2A-E, a single molecule of the guanine-aptamer RNA was clamped between two polystyrene beads through RNA-DNA handles. […] Considering the inter-nucleotide distance as 0.448 nm at 18 pN, then using a serial worm-like chain equation
The forces on the bead were recorded at an acquisition rate of 44 kHz. Data was collected from the stereo phone jacks on the ADC boards of the Tweezers instrument and sent to the host computer audio input for analysis by SignalScope program (Faber Acoustical, LLC). As shown in the plot, power spectral density is fitted with the Lorentzian fit to yield the corner frequency (fc) that was used to calculate the trap stiffness. This setup was used to perform three different mechanical reactions: force-ramp (FR), constant-force (CF) and force-jump (FJ) under a controlled force. In the force-ramp (FR) experiment, the trap was moved at 200 nm/s, which corresponded to a loading rate 7-8 pN/s. […] The force-ramp data is plotted as force vs. extension curves (FEC).
In the force-ramp experiment, the trap was moved away (pull cycle) from the micropipette at 200 nm/sec, which corresponded to a loading rate of 7-8 pN/sec. This movement of the trap exerted a tension at the ends of the tethered RNA aptamer. […] In the constant-force (CF) experiment, the RNA was held at a preset force (FIG. 6A). The loading rate in CF experiments was zero. The preset force typically fluctuated around the mean with standard deviation ±0.15 pN. The force-ramp and the CF experiments were carried out at an ambient temperature 25±0.5° C. in buffer containing 10 mM Tris-HCl, pH 7.5 at 250 mM NaCl, 3 mM MgCl2 unless mentioned otherwise.

[3] = in-line probing assay; read-out: KD for guanine; cited from earlier work
[4] = transition BA (P1 folding), F 8.5 pN
[5] = transition C′B (L2-L3 folding), F 8.5 pN
[6] = transition DC (P3 folding), F 12.0 pN
[7] = transition ED (P2 folding), F 13.5 pN
[8] = 200 nM guanine, sequential unfolding

B1: wt: 69-nucleotide full-length wild-type guanine sensing aptamer RNA sequence from xpt-pbuX operon in B. subtilis (SEQ ID NO: 1) (nucleic acid)
chain: CACUCAUAUAAUCGCGUGGAUAUGGCACGCAAGUUUCUACCGGGCACCGUAAAUGUCCGACUAUGGGUG
modifications: RNA, backbone and methylation of C not given here
[1]; transition BA (P1 folding), 250 uM DAP (rates at 8.5 pN)
  Equilibrium force F^eq: 9.8 ± 0.1 pN
[1]; [4]
  Folding rate kf: 0.29 ± 0.02 s⁻¹
  Transition distance ΔX: 9.7 ± 0.2 nm
  Unfolding rate ku: 0.023 ± 0.004 s⁻¹
[1]; transition BA (P1 folding), from data at 8.5 pN
  ΔG (0): −16.6 ± 0.5 kBT
[1]; transition C′B (L2-L3 folding), 250 uM DAP (rates at 8.5 pN)
  Equilibrium force F^eq: 8.7 ± 0.2 pN
[1]; [5]
  Folding rate kf: 0.96 ± 0.08 s⁻¹
  Transition distance ΔX: 3.6 ± 0.2 nm
  Unfolding rate ku: 0.8 ± 0.06 s⁻¹
[1]; transition C′B (L2-L3 folding), from data at 8.5 pN
  ΔG (0): −7.6 ± 0.4 kBT
[1]; transition DC (P3 folding), 250 uM DAP (rates at 12.0 pN)
  Equilibrium force F^eq: 12.3 ± 0.02 pN
[1]; [6]
  Folding rate kf: 22.0 ± 0.6 s⁻¹
  Transition distance ΔX: 7.5 ± 0.3 nm
  Unfolding rate ku: 14.3 ± 0.4 s⁻¹
[1]; transition DC (P3 folding), from data at 12.0 pN
  ΔG (0): −15.5 ± 0.9 kBT
[1]; transition ED (P2 folding), 250 uM DAP (rates at 13.5 pN)
  Equilibrium force F^eq: 13.6 ± 0.02 pN
[1]; [7]
  Folding rate kf: 14.7 ± 0.4 s⁻¹
  Transition distance ΔX: 7.0 ± 0.2 nm
  Unfolding rate ku: 13.4 ± 0.4 s⁻¹
[1]; transition ED (P2 folding), from data at 13.5 pN
  ΔG (0): −16.3 ± 0.7 kBT
[2]; [8]
  Force at which P1 melted: 5-10 pN
  Force at which P2, P3 unfolded: 12-15 pN
[2]; listed as guanine-aptamer
  Unfolding force of the aptamer: 18.6±1.1 pN
  Observed ΔXobs: 30.2±1 nm
[2]; listed as isolated aptamer
  Unfolding force of the aptamer: ~18.0 pN
  Observed ΔXobs: ~30 nm
[2]
  Observed nucleotides: 67.1 ± 2
  Observed ΔXobs: 30.2 ± 1.0 nm
[2]; listed as 69 nt-aptamer
  Observed nucleotides: 67±2
[3]
  Kd: ~5 nM

Source: patent publication US11905559B2, “Materials and methods for controlling gene expression” (priority 2016, dated 2024)
